Reference: publication PMC5430508

Target: 8G-AIDA receptor: eight tandemly repeated protein G C2 domains linked with AIDA, on the surface of Escherichia coli BL21 cells (BL21/8G) (not stated (streptococcal))
Assay: ELISA; bacteria coated on poly-L-lysine-treated 96-well plates (10^7 cfu/well added; about 6.7 × 10^6 cfu/well coated), blocked with 5% skim milk; HRP-conjugated goat anti-mouse IgG Fc (1 μg/mL), room temperature, 1 h; ABTS, absorbance at 405 nm

For “HRP-conjugated goat anti-mouse IgG Fc (antibody)”, the fold of antibody trapped against BL21/1G cells was 18.9 fold.
